Biological target: T1, β1 integrins (UniProt P05556 21-798)
T1 construct: Endogenous protein of the epithelial membrane extract; also called beta 1 integrins
Assay: gel overlay with HeLa membrane extract

T1 sequence (P05556 21-798): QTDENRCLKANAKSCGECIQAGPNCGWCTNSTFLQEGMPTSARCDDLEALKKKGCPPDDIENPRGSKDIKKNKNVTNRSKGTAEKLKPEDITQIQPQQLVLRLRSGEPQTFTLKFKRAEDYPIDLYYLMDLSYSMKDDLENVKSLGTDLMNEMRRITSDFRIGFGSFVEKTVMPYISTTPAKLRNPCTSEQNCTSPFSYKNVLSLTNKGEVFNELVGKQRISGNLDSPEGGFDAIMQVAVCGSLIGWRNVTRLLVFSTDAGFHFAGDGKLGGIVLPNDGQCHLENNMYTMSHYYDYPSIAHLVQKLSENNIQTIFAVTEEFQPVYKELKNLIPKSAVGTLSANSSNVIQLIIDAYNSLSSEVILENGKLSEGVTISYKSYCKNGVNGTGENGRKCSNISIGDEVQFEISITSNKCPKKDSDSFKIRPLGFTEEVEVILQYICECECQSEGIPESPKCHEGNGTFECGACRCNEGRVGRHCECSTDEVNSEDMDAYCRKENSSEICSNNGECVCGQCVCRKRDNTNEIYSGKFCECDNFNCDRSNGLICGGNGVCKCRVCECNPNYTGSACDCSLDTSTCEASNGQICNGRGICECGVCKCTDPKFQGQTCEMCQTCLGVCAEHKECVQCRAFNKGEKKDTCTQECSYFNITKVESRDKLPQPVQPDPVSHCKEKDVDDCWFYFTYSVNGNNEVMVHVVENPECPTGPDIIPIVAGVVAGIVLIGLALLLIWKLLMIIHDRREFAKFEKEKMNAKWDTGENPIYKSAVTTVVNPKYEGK

B1: His-T7Int fusion protein (other)
chain: ITEIKADKTTAVANGQDAITYTVKVMKGDKPVSNQEVTFTTTLGKLSNSTEKTDTNGYAKVTLTSTTPGKSLVSARVSDVAVDVKAPEVEFFTTLTIDDGNIEIVGTGVKGKLPTVWLQYGQVNLKASGGNGKYTWRSANPAIASVDASSGQVTLKEKGTTTISVISSDNQTATYTIATPNSLIVPNMSKRVTYNDAVNTCKNFGGKLPSSQNELENVFKAWGAANKYEYYKSSQTIISWVQQTAQDAKSGVASTYDLVKQNPLNNIKASESNAYATCVK
notes: domain: 280 C-terminal residues of intimin; Purified on an agarose-nickel column; also called His-T7Intimin; His-T7Int peptide
B1: no binding.

Source: patent US7208574 (UNIVERSITY OF BRITISH COLUMBIA, dated 2007)
